Laboratory results as given in patent US20230265151A1, “GIP/GLP1 CO-AGONIST COMPOUNDS” (priority 2020, published 2023).

T1: human glucose-dependent insulinotropic polypeptide (GIP) receptor (human, UniProt P48546 22-466)
T1 sequence (looked up): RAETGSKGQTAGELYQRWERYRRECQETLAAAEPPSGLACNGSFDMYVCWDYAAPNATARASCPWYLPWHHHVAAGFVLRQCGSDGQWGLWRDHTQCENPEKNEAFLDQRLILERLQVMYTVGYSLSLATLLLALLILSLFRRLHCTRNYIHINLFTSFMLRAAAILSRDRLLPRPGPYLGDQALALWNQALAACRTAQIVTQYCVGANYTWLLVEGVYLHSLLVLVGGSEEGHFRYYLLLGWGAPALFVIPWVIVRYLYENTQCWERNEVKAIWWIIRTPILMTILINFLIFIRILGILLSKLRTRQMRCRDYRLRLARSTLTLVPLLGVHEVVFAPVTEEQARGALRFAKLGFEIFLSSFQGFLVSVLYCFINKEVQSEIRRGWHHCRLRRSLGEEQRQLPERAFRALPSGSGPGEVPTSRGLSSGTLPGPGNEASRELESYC


Tests used:
Assay in all cases: cell-based or functional assay
[1] = molecular target: human glucagon-like peptide-1 (GLP-1) receptor (human, UniProt P43220 24-463)
[2] = molecular target: human glucagon receptor (human, UniProt P47871 26-477)
[3] = molecular target: T1, human glucose-dependent insulinotropic …

Binder | cAMP EC50 [1] [nM] | cAMP EC50 [2] [µM] | cAMP EC50 [3] [nM] | cAMP Emax [3] [%] | cAMP Emax [1] [%]
YXEGTXTSDXSIXLDXKAQXKFIXXLIEGGPSSGAPPPS (Aib2, αMeF(2F)6, 2Nal10, αMeL13, Orn16, K17(Z), Aib20, K21(Z), D-Glu24, αMeY25, C-terminal NH2; Z = AEEA2-(γ-Glu)-CO-(CH2)12-CO2H) [Example 249] | 0.3 | > 9.95 | 0.0201 | – | –
YXEGTXTSDXSIXLDXKAQXEFIXXLIKGGPSSGAPPPS (Aib2, αMeF(2F)6, OMeY10, αMeL13, Orn16, K17(Z), Aib20, D-Glu24, αMeY25, K28(Z), C-terminal NH2; Z = AEEA2-(γ-Glu)-CO-(CH2)12-CO2H) [Example 260] | 0.547 | > 9.95 | 0.0239 | – | –
YXEGTXTSDXSIXLDXIAQXEFIKXLIKGGPSSGAPPPS (Aib2, αMeF(2F)6, OMeY10, αMeL13, Orn16, Aib20, K24(Z), αMeY25, K28(Z), C-terminal NH2; Z = AEEA2-(γ-Glu)-CO-(CH2)12-CO2H) [Example 262] | 0.472 | > 9.95 | 0.0327 | – | –
YXEGTXTSDXSIXLDXKAQXKFIXXLIEGGPSSGAPPPS (Aib2, αMeF(2F)6, OMeY10, αMeL13, Orn16, K17(Z), Aib20, K21(Z), D-Glu24, αMeY25, C-terminal NH2; Z = AEEA2-CO-(CH2)12-CO2H) [Example 265] | 0.262 | > 9.95 | 0.0145 | – | –
YXEGTXTSDXSIXLDXIAQXKFIXXLIKGGPSSGAPPPS (Aib2, αMeF(2F)6, OMeY10, αMeL13, Orn16, Aib20, K21(Z), D-Glu24, αMeY25, K28(Z), C-terminal NH2; Z = AEEA2-(γ-Glu)-CO-(CH2)12-CO2H) [Example 263] | 0.294 | > 9.95 | 0.0214 | 88.6 | –
YXEGTXTSDXSIXLDXKAQXKFIXXLIEGGPSSGAPPPS (Aib2, αMeF(2F)6, OMeY10, αMeL13, Orn16, K17(Z), Aib20, K21(Z), D-Glu24, αMeY25, C-terminal NH2; Z = AEEA2-(γ-Glu)-CO-(CH2)12-CO2H) [Example 259] | 0.362 | > 9.95 | 0.0198 | – | –
YXEGTXTSDXSIXLDXIAQXEFIKXLIKGGPSSGAPPPS (Aib2, αMeF(2F)6, hTyr10, αMeL13, Orn16, Aib20, K24(Z), αMeY25, K28(Z), C-terminal NH2; Z = AEEA2-(γ-Glu)-CO-(CH2)12-CO2H) [Example 270] | 0.551 | > 9.95 | 0.0567 | – | –
YXEGTXTSDXSIXLDXIAQXEFIKXLIKGGPSSGAPPPS (Aib2, αMeF(2F)6, 2Nal10, αMeL13, Orn16, Aib20, K24(Z), αMeY25, K28(Z), C-terminal NH2; Z = AEEA2-(γ-Glu)-CO-(CH2)12-CO2H) [Example 252] | 0.555 | > 9.95 | 0.049 | – | –
YXEGTXTSDXSIXLDXIAQXKFIXXLIKGGPSSGAPPPS (Aib2, αMeF(2F)6, 2Nal10, αMeL13, Orn16, Aib20, K21(Z), D-Glu24, αMeY25, K28(Z), C-terminal NH2; Z = AEEA2-(γ-Glu)-CO-(CH2)12-CO2H) [Example 253] | 0.43 | > 9.95 | 0.0295 | – | –
YXEGTXTSDXSIXLDXIAQXKFIXXLIKGGPSSGAPPPS (Aib2, αMeF(2F)6, 4Pal10, αMeL13, Orn16, Aib20, K21(Z), D-Glu24, αMeY25, K28(Z), C-terminal NH2; Z = AEEA2-(γ-Glu)-(10-(4-carboxyphenoxy)decanoyl)) [Example 275] | 0.737 | > 9.95 | 0.0152 | – | –
YXEGTXTSDXSIXLDXKAQXEFIXXLIKGGPSSGAPPPS (Aib2, αMeF(2F)6, 2Nal10, αMeL13, Orn16, K17(Z), Aib20, D-Glu24, αMeY25, K28(Z), C-terminal NH2; Z = AEEA2-(γ-Glu)-CO-(CH2)12-CO2H) [Example 250] | 0.414 | > 9.95 | 0.021 | – | –
YXEGTXTSDXSIXLDXKAQXEFIXXLIKGGPSSGAPPPS (Aib2, αMeF(2F)6, 2Nal10, αMeL13, Orn16, K17(Z), Aib20, D-Glu24, αMeY25, K28(Z), C-terminal NH2; Z = AEEA2-CO-(CH2)12-CO2H) [Example 256] | 0.249 | > 9.95 | 0.0175 | – | –
YXEGTXTSDXSIXLDXKAQXEFIXXLIKGGPSSGAPPPS (Aib2, αMeF(2F)6, OMeY10, αMeL13, Orn16, K17(Z), Aib20, D-Glu24, αMeY25, K28(Z), C-terminal NH2; Z = AEEA2-CO-(CH2)12-CO2H) [Example 266] | 0.282 | > 9.95 | 0.0136 | – | 90.5
YXEGTXTSDXSIXLDXKAQXKFIXXLIEGGPSSGAPPPS (Aib2, αMeF(2F)6, 2Nal10, αMeL13, Orn16, K17(Z), Aib20, K21(Z), D-Glu24, αMeY25, C-terminal NH2; Z = AEEA2-CO-(CH2)12-CO2H) [Example 255] | 0.357 | > 9.95 | 0.0213 | – | –
